In patent US7090834B1, “Vascular endothelial cell growth factor variants and uses thereof” (Genentech, Inc., priority 1999, dated 2006):
Numbering of substitutions follows the chain as printed. Where two headings read alike, the source gives them in different places.

B1: native VEGF (8-109) (ligand, human, UniProt P15692 214-315, looked up)
chain: GQNHHEVVKFMDVYQRSYCHPIETLVDIFQEYPDEIEYIFKPSCVPLMRCGGCCNDEGLECVPTEESNITMQIMRIKPHQGQHIGEMSFLQHNKCECRPKKD
notes: Homodimer
B2: PlGF: VEGF-related molecule that binds Flt-1 but not KDR (R & D Systems) (protein)
chain: AVPPQQWALSAGNGSSEVEVVPFQEVWGRSYCRALERLVDVVSEYPSEVEHMFSPSCVSLLRCTGCCGDENLHCVPVETANVTMQLLKIRSGDRPSYVELTFSQHVRCECRPLREKMKPERCGDAVPRR
B3: LK-VRB-8s* (ligand)
chain: APMAEGGGQNHHEVVKFMDVLQRSYCHPIETLVDIFQEYPDEIEYIFKPSCVPLMRCGGCCNSEMRECVPTEESNITMQIMRIKPHQGQHIGEMSFLQHNKCECRPKKD
B4: LK-VRB-9s (ligand, human, UniProt P15692-4 27-135, looked up)
chain: B3 chain with L21Y, Q22R
B5: LK-VRB-7s* (ligand, human, UniProt P15692-4 27-135, looked up)
chain: B3 chain with M18E, L21Y
B6: LK-VRB-3s (ligand, human, UniProt P15692-4 27-135, looked up)
chain: B3 chain with F17I, M18E, L21F, Q22K, Y25S, S63D, M65G, R66L

Assays:
PLC-gamma in HUVEC cells = experiment: PLC-gamma tyrosine phosphorylation after immunoprecipitation; format: cell-based, human; settings: 20 ng/ml, 5 minutes, FIG. 13A
Method: In order to determine which VEGF receptor(s) are involved in PLC-gamma activation in primary endothelial cells, HUVEC cells were treated with native VEGF or VEGF receptor-selective variants and PLC-gamma phosphorylation was assessed after immunoprecipitation.
Passage 4–7 HUVEC cells (Cell Systems, Kirkland, Wash.) were grown in Cell System's complete medium (AZ0-500) with 10% fetal calf serum and growth factors on gelatin-coated dishes and made quiescent by 14 hour starvation in 0.2% serum. […] The cells were then lysed in 0.5–1 ml RIPA buffer containing 0.1 mM sodium orthovanadate, 5 mM para-nitrophenylphosphate, 10 mM sodium fluoride, 0.5 micromolar okadaic acid and a protease inhibitor cocktail (Roche MB 1836145). PLC-gamma was then immunoprecipitated from whole cell lysates using monoclonal antibodies (Upstate Biotechnology) and analyzed for tyrosine phosphorylation (FIG. 13A) or lysates were immunoprecipitated with monoclonal antibodies against p85 PI 3′-kinase (purchased from Transduction Labs (P13020) and Neomarkers (MS424-P)) and tested for phosphotyrosine using phosphotyrosine antibodies PY20 or E120H (Transduction Labs) (FIG. 13B). Immunoprecipitation was conducted as follows. Protein A/G beads (Pierce) were blocked for nonspecific protein binding in 50 mM HEPES pH 7.2, 0.1% TX-100, 150 mM NaCl and 1 mg/ml ovalbumin for 30 minutes. Antibodies were precoupled in the same buffer for 1 hour at 4° C. with head over end rotation and beads were washed 3 times in lysis buffer. Beads were added to the lysates and rotated overnight. Beads were washed sequentially in 50 mM Tris pH 7.6, 150 mM NaCl, 1% TX-100, 1 mM CaCl2; 50 mM Tris pH 7.6, 500 mM NaCl, 0.1% TX-100, 1 mM CaCl2 and 50 mM Tris pH 7.6, 150 mM NaCl, 0.05% TX-100, 1 mM CaCl2. Beads were then resuspended in 2× sample buffer and boiled. Supernatants were applied directly to 4–12% Tris-Glycine gradient gels (Novex).

Flt-1 receptor [1] = experiment: RIA assay, binding to FLT-1 receptor
Method: Various assays were conducted to examine the properties and biological activities of the I43A/I46A/Q79A/I83A Flt-sel variant. For example, quantitative binding measurements were carried out using a soluble radio-immuno receptor-binding assay (RIA), as described in Example 6 above.
Target sequence in this assay (P17948 27-331 limits assumed): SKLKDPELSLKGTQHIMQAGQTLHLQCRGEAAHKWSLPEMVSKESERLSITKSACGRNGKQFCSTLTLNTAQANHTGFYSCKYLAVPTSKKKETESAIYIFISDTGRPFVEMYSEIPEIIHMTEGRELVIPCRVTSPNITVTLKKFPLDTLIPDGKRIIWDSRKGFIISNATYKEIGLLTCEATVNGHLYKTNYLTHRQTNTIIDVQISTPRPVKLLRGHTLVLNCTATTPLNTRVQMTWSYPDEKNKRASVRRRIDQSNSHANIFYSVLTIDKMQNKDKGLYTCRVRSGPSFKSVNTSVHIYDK

HUVEC cells = experiment: HUVEC migration, modified Boyden chamber assay; format: cell-based, human; settings: highest concentration of inhibitor, migration in response to native VEGF, 4 hours, FIG. 14B
Method: One of the central aspects of VEGF action on endothelial cells is its ability to act as a chemoattractant and stimulate the migration of endothelial cells. HUVEC cell migration was analyzed in a modified Boyden chamber assay as follows.
Falcon 8.0 micron filter inserts (Falcon 3097) were coated with type 1 collagen (VITROGEN, COHESION). HUVEC (obtained from Cell Systems, <passage 8) were grown in Cell Systems complete media (4ZO-500) with 10% FCS. Cells were trypsinized and transferred to EBM (Endothelial basal media, Clonetics) with 0.1% BSA for the assay. Cells were plated at 5×10^4 per upper chamber. […] The assay was routinely an 18 hour assay at 37° C. For the LY294002 inhibitor experiments, cells were allowed to adhere for 30 minutes prior to addition of the inhibitor. 20 minutes after inhibitor addition, VEGF was added to the bottom well and the assay was allowed to proceed for only 4 hours to avoid the occurrence of apoptosis associated with the treatment of these primary cells with LY294002 (purchased from Biomol).
Cells were removed from the upper side of the membrane by scraping with a polyurethane swab and then the remaining cells on the bottom side of the membrane were fixed with methanol. Cells were stained with Yo-Pro Iodide nuclear stain (Molecular Probes) and counted under low power fluorescence using an Image-Pro cell recognition program.

Flt-IgG = target: T1, Flt-IgG (UniProt P17948 27-758, limits assumed); experiment: competition ELISA vs biotinylated native VEGF for Flt-IgG
T1 construct: also called chimeric Flt-human Fc molecule; not shown: human IgG Fc
Method: (§1) Receptor binding assays were performed in 96-well immunoplates (Maxisorp, Nunc-Immunoplate, Nalge Nunc International, Rochester, N.Y.). Each well was coated with 100 μl of a solution containing 2 μg/ml of rabbit F(ab')2 to human IgG Fc (Jackson ImmunoResearch, West Grove, Pa.) in 50 mM carbonate buffer at pH 9.6 and incubated at 4° C. overnight. The supernatant was then discarded, the wells were washed three times in washing buffer (0.05% Tween 20 in PBS), and the plate was blocked (150 μl per well) with block buffer (0.5% BSA, 0.01% thimerosal in PBS) at room temperature for one hour. The supernatant was discarded, and the wells were washed.
(§2) The wells were filled with 100 μl of a solution containing Flt-IgG (a chimeric Flt-human Fc molecule) at 50 ng/ml in assay buffer (0.5% BSA, 0.05% Tween 20 in PBS). The wells were incubated at room temperature for 1 hour and then washed three times in wash buffer (0.05% Tween 20 in PBS).
(§3) Aliquots of the mixture (100 μl) were added to the precoated microtiter wells and the plate was incubated for 2 hours at room temperature. […] The wells were then incubated with 3, 3', 5,5'-tetramethyl benzidine (0.2 g/liter, Kirkegaard & Perry Laboratories, Gaithersburg, Md.) for about 10 minutes at room temperature. Absorbance was read at 450 nm on a Vmax plate reader (Molecular Devices, Menlo Park, Calif.).

[2] = target: gD-KDR receptor on CHO cells (UniProt P35968 20-1356); experiment: cell-based or functional assay
[3] = target: KDR receptor on HUVEC cells (human, UniProt P35968 20-1356); experiment: cell-based or functional assay
corneal angiogenesis = experiment: Corneal pocket angiogenesis assay; format: in vivo, Sprague-Dawley rats; settings: rat, pellet with 200 ng growth factor, day 6, FIGS. 15A and 15B
Method: Assays were performed as described by Polyerini et al., Methods Enzymol., 198:440–450 (1991) with the following modifications. Sprague-Dawley rats were anesthetized using a gas (isoflurane)/injectable ketamine (80 mg/kg)/xylazine (15 mg/kg) combination. The eyes were gently proptosed and secured in place using nontraumatic forceps. With a #15 blade, a 1.5 mm incision was made slightly below the center of the cornea. Using a micro spatula (ST80017, ASSI), the incision was carefully blunt-dissected through the stroma toward the outer canthus of the eye. […] After surgery, the eyes were coated with gentamicin ointment. At day 6, the animals were injected with high molecular weight FITC-dextran and euthanized to allow for visualization of the vasculature. Corneal whole mounts were made of the enucleated eyes and measurements of the neovascular area completed using computer-assisted image analysis (Image-Pro Plus).

Flt-1 receptor [4] = experiment: Flt-1 receptor binding ELISA (inhibition of biotinylated native VEGF binding to Flt-IgG); settings: for Relative Binding Affinity, FLT-1 Receptor: concentration at midpoint absorbance: first figure of the cell, Flt-IgG; for Relative Binding Affinity, FLT-1 Receptor: ratio to native VEGF (8–109): second figure of the cell, fold less binding than native VEGF
Method: as §1, with “F(ab′)2” for “F(ab')2”
as §2
as §3, with “3′, 5,5′-tetramethyl” for “3', 5,5'-tetramethyl”
(§4) Titration curves were fit with a four-parameter nonlinear regression curve-fitting program (KaleidaGraph, Synergy Software, Reading, Pa.).
Target sequence in this assay (P17948 27-327 limits assumed): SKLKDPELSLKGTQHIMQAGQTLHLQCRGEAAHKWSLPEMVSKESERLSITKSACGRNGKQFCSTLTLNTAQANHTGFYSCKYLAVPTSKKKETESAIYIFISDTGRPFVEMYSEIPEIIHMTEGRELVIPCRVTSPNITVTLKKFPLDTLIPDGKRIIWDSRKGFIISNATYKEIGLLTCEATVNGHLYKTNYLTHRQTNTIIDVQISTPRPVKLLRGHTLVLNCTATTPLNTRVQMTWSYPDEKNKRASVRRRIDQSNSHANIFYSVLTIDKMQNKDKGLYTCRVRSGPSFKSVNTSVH

KDR receptor = KDR receptor (Homo sapiens, UniProt P35968); experiment: KDR receptor binding ELISA (inhibition of biotinylated native VEGF (8–109) binding); settings: second figure of the cell, variant midpoint concentration divided by that of native VEGF
Method: as §1, with “containing 8” for “containing 2”, “of a monoclonal antibody” for “of rabbit F(ab')2”, “to KDR known as MAKD5 (Genentech, South San Francisco, Calif.)” for “to human IgG Fc (Jackson ImmunoResearch, West Grove, Pa.)”, “was” for “was then”
as §3, with “of this” for “of the”, “for 1 hour” for “for 2 hours”, “3, 3′, 5,5′-tetramethyl” for “3, 3', 5,5'-tetramethyl”, “(0.2 gram/liter;” for “(0.2 g/liter,”
as §4

KDR (1-3) = target: T2, KDR (1-3) (UniProt P35968 20-327, limits assumed); experiment: competition ELISA vs biotinylated native VEGF (8-109) for KDR (1-3)
T2 construct: domain: domains 1 to 3; Genentech reagent; also called KDR (1-3) monomer; domains 1 to 3 of KDR
Method: as §1, with “containing 8” for “containing 2”, “of a monoclonal antibody” for “of rabbit F(ab')2”, “to KDR known as MAKD5 (Genentech, South San Francisco, Calif.)” for “to human IgG Fc (Jackson ImmunoResearch, West Grove, Pa.)”, “was” for “was then”
as §3, with “of this” for “of the”, “for 1 hour” for “for 2 hours”, “(0.2 gram/liter;” for “(0.2 g/liter,”
as §4

KDR receptor on HUVEC cells, sequence (P35968 20-1356): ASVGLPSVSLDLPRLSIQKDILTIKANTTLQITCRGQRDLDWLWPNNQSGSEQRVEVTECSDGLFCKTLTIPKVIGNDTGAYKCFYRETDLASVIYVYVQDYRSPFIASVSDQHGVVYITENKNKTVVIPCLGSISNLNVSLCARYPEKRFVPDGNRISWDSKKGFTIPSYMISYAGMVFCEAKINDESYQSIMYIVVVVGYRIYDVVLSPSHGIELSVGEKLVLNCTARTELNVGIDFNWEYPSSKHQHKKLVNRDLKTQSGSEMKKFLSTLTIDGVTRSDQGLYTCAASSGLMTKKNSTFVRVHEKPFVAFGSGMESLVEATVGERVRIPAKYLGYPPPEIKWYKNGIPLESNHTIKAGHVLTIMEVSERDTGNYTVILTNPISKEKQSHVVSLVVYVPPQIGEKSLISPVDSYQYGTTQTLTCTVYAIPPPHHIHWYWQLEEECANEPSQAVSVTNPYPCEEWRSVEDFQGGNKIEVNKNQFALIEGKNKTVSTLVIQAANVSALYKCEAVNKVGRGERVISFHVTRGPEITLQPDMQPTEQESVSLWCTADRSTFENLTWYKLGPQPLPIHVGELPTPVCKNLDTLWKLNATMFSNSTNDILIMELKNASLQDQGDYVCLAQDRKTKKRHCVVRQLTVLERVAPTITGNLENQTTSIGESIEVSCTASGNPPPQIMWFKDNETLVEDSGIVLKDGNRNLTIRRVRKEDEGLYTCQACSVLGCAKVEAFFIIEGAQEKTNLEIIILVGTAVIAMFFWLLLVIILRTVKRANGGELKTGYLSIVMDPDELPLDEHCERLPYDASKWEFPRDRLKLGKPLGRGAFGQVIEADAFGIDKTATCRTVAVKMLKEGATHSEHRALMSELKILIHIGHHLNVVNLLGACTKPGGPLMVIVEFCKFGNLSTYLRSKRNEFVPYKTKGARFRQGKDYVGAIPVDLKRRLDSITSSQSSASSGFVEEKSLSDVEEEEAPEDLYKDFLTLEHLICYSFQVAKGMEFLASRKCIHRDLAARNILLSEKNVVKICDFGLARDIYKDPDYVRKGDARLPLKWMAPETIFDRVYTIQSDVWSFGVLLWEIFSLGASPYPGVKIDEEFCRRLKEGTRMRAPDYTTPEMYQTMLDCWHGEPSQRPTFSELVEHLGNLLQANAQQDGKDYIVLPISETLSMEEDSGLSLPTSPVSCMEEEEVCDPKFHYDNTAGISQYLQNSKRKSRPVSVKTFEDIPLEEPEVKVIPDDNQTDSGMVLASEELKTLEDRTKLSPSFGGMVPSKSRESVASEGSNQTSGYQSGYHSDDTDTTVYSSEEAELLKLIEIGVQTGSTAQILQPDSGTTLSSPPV
T1 sequence (P17948 27-758 limits assumed): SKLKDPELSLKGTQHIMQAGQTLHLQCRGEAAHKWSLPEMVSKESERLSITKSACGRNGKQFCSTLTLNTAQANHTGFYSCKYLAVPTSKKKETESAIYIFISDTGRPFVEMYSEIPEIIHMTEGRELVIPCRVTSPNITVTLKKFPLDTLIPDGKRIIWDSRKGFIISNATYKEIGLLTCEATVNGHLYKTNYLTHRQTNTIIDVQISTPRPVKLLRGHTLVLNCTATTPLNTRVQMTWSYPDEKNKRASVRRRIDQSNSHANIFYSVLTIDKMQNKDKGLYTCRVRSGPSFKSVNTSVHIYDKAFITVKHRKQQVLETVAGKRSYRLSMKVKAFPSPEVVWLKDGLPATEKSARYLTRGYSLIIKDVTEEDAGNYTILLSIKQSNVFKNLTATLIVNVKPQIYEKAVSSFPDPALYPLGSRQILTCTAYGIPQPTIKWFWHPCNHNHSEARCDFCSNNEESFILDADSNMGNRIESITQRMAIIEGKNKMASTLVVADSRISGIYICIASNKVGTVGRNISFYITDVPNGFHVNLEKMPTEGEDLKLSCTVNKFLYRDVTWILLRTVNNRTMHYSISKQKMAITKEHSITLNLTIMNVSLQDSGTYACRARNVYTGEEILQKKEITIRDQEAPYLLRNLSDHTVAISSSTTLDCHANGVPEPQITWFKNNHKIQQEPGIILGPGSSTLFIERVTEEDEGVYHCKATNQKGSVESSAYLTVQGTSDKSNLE
T2 sequence (P35968 20-327 limits assumed): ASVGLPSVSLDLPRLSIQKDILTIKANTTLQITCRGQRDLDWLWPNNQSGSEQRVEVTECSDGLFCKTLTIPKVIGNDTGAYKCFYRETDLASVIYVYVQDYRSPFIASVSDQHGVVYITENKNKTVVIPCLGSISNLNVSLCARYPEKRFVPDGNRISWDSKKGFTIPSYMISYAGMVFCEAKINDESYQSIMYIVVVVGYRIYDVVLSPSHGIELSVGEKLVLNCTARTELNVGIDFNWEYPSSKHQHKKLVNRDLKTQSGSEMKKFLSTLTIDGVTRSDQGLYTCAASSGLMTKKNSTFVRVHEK
KDR receptor, sequence (P35968 20-327 limits assumed): as above

| Molecule | Endothelial Cell Proliferation Activity (HUVEC, 3H-thymidine) [3] | relative binding affinity (ratio to native VEGF (8-109)) (Flt-IgG) [ratio] | Relative Binding Affinity, FLT-1 Receptor: ratio to native VEGF (8–109) (Flt-1 receptor [4]) | Relative Binding Affinity, KDR Receptor: ratio to native VEGF (8–109) (KDR receptor) | relative binding affinity (ratio to native VEGF (8-109)) (KDR (1-3)) [ratio] | other results |
| --- | --- | --- | --- | --- | --- | --- |
| Native VEGF 165: 165-amino acid native vascular endothelial cell growth factor [reference compound] |  |  |  |  |  | PLC-gamma phosphorylation (PLC-gamma in HUVEC cells): able to stimulate PLC-gamma phosphorylation to a similar extent; Kd (Flt-1 receptor [1]; Table 6, read-out: Binding affinity, FLT-1 Receptor (RIA), value in parentheses): 0.037 nM |
| Native VEGF (8–109): truncated native VEGF comprising amino acids 8 to 109 of the 165-amino acid vascular endothelial cell growth factor [reference compound] |  |  |  |  |  | Kd (Flt-1 receptor [1]; Example 8, FIG. 8B, read-out: affinity for Flt-1 (RIA)): 0.4 nM |
| O=c1cc(N2CCOCC2)oc2c(-c3ccccc3)cccc12 [LY 294002, reference compound] |  |  |  |  |  | inhibition of HUVEC cell migration (HUVEC cells): 56% |
| B1 | 0.5 nM |  |  |  |  | IC50 (Flt-IgG): 0.42 nM; Phosphorylation-Inducing Activity (KIRA assay) [2]: 2 nM |
| B2 |  |  |  |  |  | induction of corneal angiogenesis (corneal angiogenesis): only a marginal response |
| B3 | 0.5 nM | > 21000 | />21000 | 0.5 nM/0.5 | 0.5 | Relative Binding Affinity, FLT-1 Receptor: concentration at midpoint absorbance (Flt-1 receptor [4]): beyond the sensitivity of the ELISA assay; Endothelial Cell Proliferation Activity (HUVEC, 3H-thymidine) (ratio to native VEGF (8-109)) [3]: 1 |
| B4 |  | 300 | /300 | 0.5 nM/0.5 | 0.5 |  |
| B5 | 1 ratio to native VEGF (8-109) | > 15000 | />15000 | 1 nM/1 | 1 | Relative Binding Affinity, FLT-1 Receptor: concentration at midpoint absorbance (Flt-1 receptor [4]): beyond the sensitivity of the ELISA assay |
| B6 |  | 400 |  |  | 1 | Phosphorylation-Inducing Activity (KIRA assay) [2]: 1 ratio to native VEGF (8-109) |
